Assay results published in publication PMC2896262 (Structure (London, England : 1993), 2009).

T1: soNrtR (Shewanella oneidensis, UniProt Q8EFJ3 1-237)
T1 sequence: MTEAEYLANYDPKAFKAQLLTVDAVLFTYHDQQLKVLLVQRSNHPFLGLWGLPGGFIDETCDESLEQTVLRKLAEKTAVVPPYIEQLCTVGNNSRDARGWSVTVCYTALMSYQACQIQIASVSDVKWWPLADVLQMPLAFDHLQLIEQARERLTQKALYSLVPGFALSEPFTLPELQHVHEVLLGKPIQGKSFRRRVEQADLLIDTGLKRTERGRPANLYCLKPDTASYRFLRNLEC

B1: N-terminal domain of soNrtR (residues 1-159) (domain or fragment, Shewanella oneidensis, UniProt Q8EFJ3 1-159, looked up)
chain: MTEAEYLANYDPKAFKAQLLTVDAVLFTYHDQQLKVLLVQRSNHPFLGLWGLPGGFIDETCDESLEQTVLRKLAEKTAVVPPYIEQLCTVGNNSRDARGWSVTVCYTALMSYQACQIQIASVSDVKWWPLADVLQMPLAFDHLQLIEQARERLTQKALY
B2: 28-nt NrtR-box DNA (dsDNA)
DNA 1: CGTAATAGTGTCTTAAAGACACTATTAC
DNA 2: CGTAATAGTGTCTTTAAGACACTATTAC

Tests used:
crystal structure = target: the molecule itself; assay: crystal structure
soNrtR = target: T1, soNrtR; assay: X-ray crystal structure

Row | Binder | stoichiometry N (crystal structure) | binding result (soNrtR)
1 | B1 | 2 | –
2 | B2 | – | binds
